Measured values: patent US20210388087A1
Changes are numbered by the printed parent chain. Names may count otherwise. Blank lines part the entries; values can stand above or below the binder they belong to.

Target: Human CD3eg linker (human)
Assay: SPR; fold vs parent H183/L072

Chain of Human CD3eg linker (human) (chain, as listed by the source limits assumed): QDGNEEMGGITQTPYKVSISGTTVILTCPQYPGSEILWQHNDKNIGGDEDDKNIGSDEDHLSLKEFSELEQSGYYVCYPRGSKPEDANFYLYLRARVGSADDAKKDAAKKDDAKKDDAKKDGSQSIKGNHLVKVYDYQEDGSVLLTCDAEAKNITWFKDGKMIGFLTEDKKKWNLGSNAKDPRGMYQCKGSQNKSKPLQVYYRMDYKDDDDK

fold change of affinity: 0 fold
B1: H183/L072 VL Q90A (antibody, name in Kabat numbering, V domains shown)
VH: QVQLVESGGGLVQPGRSLRLSCAASGFTFSNAWMHWVRQAPGKGLEWVAQIKDKGNAYAAYYAPSVKGRFTISRDDSKNSIYLQMNSLKTEDTAVYYCHYVHYASASTVLPAFGVDAWGQGTTVTVSS
VL: DIVMTQSPLSLPVTPGEPASISCQASQELVHMNRNTYLHWYQQKPGQAPRLLIYKVSNRFPGVPDRFSGSGSGTDFTLKISRVEAEDVGVYYCAAGTSVPFTFGQGTKLEIK

fold change of affinity: 0 fold
B2: H183/L072 VL F96I (antibody, name in Kabat numbering, V domains shown)
VH: B1 VH
VL: B1 VL with A95Q, F101I

fold change of affinity: 0 fold
B3: H183/L072 VL T92I (antibody, name in Kabat numbering, V domains shown)
VH: B1 VH
VL: B1 VL with A95Q, T97I

fold change of affinity: 0 fold
B4: H183/L072 VL G91A (antibody, name in Kabat numbering, V domains shown)
VH: B1 VH
VL: B1 VL with A95Q, G96A

fold change of affinity: 0 fold
B5: H183/L072 VL P95A (antibody, name in Kabat numbering, V domains shown)
VH: B1 VH
VL: B1 VL with A95Q, P100A

fold change of affinity: 0 fold
B6: H183/L072 VL G91L (antibody, name in Kabat numbering, V domains shown)
VH: B1 VH
VL: B1 VL with A95Q, G96L

fold change of affinity: 0 fold
B7: H183/L072 VL N53I (antibody, name in Kabat numbering, V domains shown)
VH: B1 VH
VL: B1 VL with N58I, A95Q

fold change of affinity: 0 fold
B8: H183/L072 VL P95L (antibody, name in Kabat numbering, V domains shown)
VH: B1 VH
VL: B1 VL with A95Q, P100L

fold change of affinity: 0 fold
B9: H183/L072 VL Q90I (antibody, name in Kabat numbering, V domains shown)
VH: B1 VH
VL: B1 VL with A95I

fold change of affinity: 0 fold
B10: H183/L072 VL G91I (antibody, name in Kabat numbering, V domains shown)
VH: B1 VH
VL: B1 VL with A95Q, G96I

fold change of affinity: 0 fold
B11: H183/L072 VL K50I (antibody, name in Kabat numbering, V domains shown)
VH: B1 VH
VL: B1 VL with K55I, A95Q

fold change of affinity: 0 fold
B12: H183/L072 VL K50L (antibody, name in Kabat numbering, V domains shown)
VH: B1 VH
VL: B1 VL with K55L, A95Q

fold change of affinity: 0 fold
B13: H183/L072 VL A89L (antibody, name in Kabat numbering, V domains shown)
VH: B1 VH
VL: B1 VL with A94L, A95Q

fold change of affinity: 0 fold
B14: H183/L072 VL Q90L (antibody, name in Kabat numbering, V domains shown)
VH: B1 VH
VL: B1 VL with A95L

fold change of affinity: 0 fold
B15: H183/L072 VL F96A (antibody, name in Kabat numbering, V domains shown)
VH: B1 VH
VL: B1 VL with A95Q, F101A

fold change of affinity: 0 fold
B16: H183/L072 VL A89I (antibody, name in Kabat numbering, V domains shown)
VH: B1 VH
VL: B1 VL with A94I, A95Q

fold change of affinity: 0 fold
B17: H183/L072 VL F96L (antibody, name in Kabat numbering, V domains shown)
VH: B1 VH
VL: B1 VL with A95Q, F101L

fold change of affinity: 0 fold
B18: H183/L072 VL P95I (antibody, name in Kabat numbering, V domains shown)
VH: B1 VH
VL: B1 VL with A95Q, P100I
